Laboratory results reported in article PMC2807033.

Biological target: RepΔC33 (Rep lacking the C-terminal 33 residues) (E. coli) (UniProt P09980)
Test: not stated; apparent KD (equilibrium dissociation constant), Figure S5; the method is not told in the text shown (SPR is the only quantitative binding method that the paper names)

**Q.** “E. coli replicative helicase DnaB, purified (from UniProt P0ACB0 1-471) (enzyme)” was tested. Which Kd did it give?
**A.** Its Kd is 1700 nM.
